Data on one molecule can be found in article PMC6078178 (Nature, 2017).

The target in the assay is T1, Tfa1 (TFIIE subunit) (S. cerevisiae, UniProt P36100 1-482).
T1 sequence (looked up): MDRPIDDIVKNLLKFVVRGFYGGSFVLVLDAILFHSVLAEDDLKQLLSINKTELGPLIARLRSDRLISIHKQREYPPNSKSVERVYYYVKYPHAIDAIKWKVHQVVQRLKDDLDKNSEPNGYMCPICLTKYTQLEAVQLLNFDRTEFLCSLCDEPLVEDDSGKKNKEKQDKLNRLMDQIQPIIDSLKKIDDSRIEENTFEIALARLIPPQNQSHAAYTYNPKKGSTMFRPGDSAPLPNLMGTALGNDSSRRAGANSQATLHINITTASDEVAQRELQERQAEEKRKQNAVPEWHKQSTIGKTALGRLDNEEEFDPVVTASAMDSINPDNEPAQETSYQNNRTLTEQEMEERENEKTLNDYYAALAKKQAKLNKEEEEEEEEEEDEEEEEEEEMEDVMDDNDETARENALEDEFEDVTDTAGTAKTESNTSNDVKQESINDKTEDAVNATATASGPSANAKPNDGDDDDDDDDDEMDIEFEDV
The experiment in a line: cross-linking.

B1: Ssl1 (natural protein, S. cerevisiae, UniProt Q04673 1-461, looked up)
chain: MAPVVISESEEDEDRVAITRRTKRQVHFDGEGDDRVDQQQQQHSSSHRDRDKHVQRKKKKRLSNRNLQGSNGGYAWEDEIKRSWDLVKVDDEGDMASLVASIVEARKKRTAKKNITPYQRGIIRSLILTLDCSEAMLEKDLRPNRHAMIIQYAIDFVHEFFDQNPISQMGIIIMRNGLAQLVSQVSGNPQDHIDALKSIRKQEPKGNPSLQNALEMARGLLLPVPAHCTREVLIVFGSLSTTDPGDIHQTIDSLVSEKIRVKVLGLSAQVAICKELCKATNYGDESFYKILLDETHLKELFNEAVTPLPVNKINKGFTLVKMGFPTRIFEDTPTFCSCHSKLVYGGYFCPNCHSKVCSLPTVCPCCDLMLILSTHLARSYHHLMPLKTFAEVPTTEKFRSEDCFSCQSRFPILKNHKNGKLLTSSRYRCEDCKQEFCVDCDVFIHEILHNCPGCESKPVIT
Take B1: the binding result was “binds”.
